Measured values from the supplement of paper PMC12764529.
± gives the half width of the 95% confidence interval.

Experiments:
[1] = folding stability dG unfold from trypsin proteolysis; higher = more stable
Outline: (§1)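 How resistant each design was to proteolysis was captured as K50, inferred by Bayesian fitting of sequencing counts. Unfolding free energy was then derived relative to a sequence-predicted unfolded-state K50 and a shared folded-state K50, per protease or combined. Digestion used trypsin and chymotrypsin at 11 threefold-diluted concentrations plus a no-protease condition, on mini-proteins under 80 residues without cysteine in a PA-tagged cDNA display construct. Designs were kept only when AlphaFold2 dimer inter-PAE was above 15.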

[2] = folding stability dG unfold from chymotrypsin proteolysis; higher = more stable
Outline: as §1

[3] = folding stability dG unfold (combined trypsin and chymotrypsin); higher = more stable
Outline: as §1

Sequence	folding stability dG unfold [1]	folding stability dG unfold [2]	folding stability dG unfold [3]
SAGGSASLEEVIESVTKPLGAKGEIDPETGVTYVQDPSGENLTLETEDGRPLKVTYEPEGKWTAVESAGGSA [r15_256_JUSTAS]	0.301 ± 0.046 kcal/mol	-0.199 ± 0.45 kcal/mol	0.24 ± 0.28 kcal/mol
SAGGSASLQTSTASVSPGALEKAIEAAKAAPPGTAVSVSFGDPVVGTPRPVTLTVDSAGNLVEITGSAGGSA [r15_228_JUSTAS]	0.376 ± 0.029 kcal/mol	0.0446 ± 0.08 kcal/mol	0.188 ± 0.097 kcal/mol
SAGGSASMGVSVAAIAEALDAARPAGAPPLVYVKLPNGEVVRVSPDESLTSISPEGEVEIEIRFLPSAGGSA [r15_50_JUSTAS]	0.907 ± 0.018 kcal/mol	0.81 ± 0.022 kcal/mol	0.878 ± 0.04 kcal/mol
SAGGSASMIFADDPAQAEAYVKPLFPNGPPFDIVELSEEEGKELVEKLKKEGKPYKVIVIKDPSKPSAGGSA [r15_567_JUSTAS]	0.192 ± 0.19 kcal/mol	0.507 ± 0.42 kcal/mol	0.341 ± 0.3 kcal/mol
SAGGSASMSNVTSYVTVYKKPGVDDLYYKVRILAPSEPKVIEIPESEIPKYEKEGIKIEKVSEELLSAGGSA [r15_783_JUSTAS]	0.901 ± 0.36 kcal/mol	1.96 ± 0.32 kcal/mol	1.28 ± 0.34 kcal/mol
SAGGSASPVLTTVTFPGSPEELEAYAAEVRAAGTLLSVSFSPSPDPSYYTITLQVRAPDGTYFTAESAGGSA [r15_177_JUSTAS]	1.14 ± 0.03 kcal/mol	1.55 ± 0.083 kcal/mol	1.39 ± 0.061 kcal/mol
SAGGSASSMTTTKKLSTGEKSVVELSTSPSTVTLVTTDPETGTVTVTTYTPSGTGPVATTTTVPAPSAGGSA [r15_137_JUSTAS]	-0.431 ± 0.13 kcal/mol	0.499 ± 0.14 kcal/mol	0.177 ± 0.097 kcal/mol
SAGGSASTYEPEVYTFTGKNKKIKVIVVKPKDNPTAKIIVYDENGNVLATIEFPAENVEKALKELASAGGSA [r15_940_TrMRF]	2.02 ± 0.029 kcal/mol	2.12 ± 0.064 kcal/mol	2.1 ± 0.083 kcal/mol
SAGGSASVKVEITEIKSSNPESSSNKIDIPVKVYDPETGKEVLSVEEIAKKIEEENPGKPVGYVPESAGGSA [r2_27_JUSTAS]	0.293 ± 0.093 kcal/mol	0.0963 ± 0.17 kcal/mol	0.281 ± 0.17 kcal/mol
SAGGSASVLEEAIEEAKKLPPGSVVPLTVTVPTDGEPVVYEILITVHPGENTIEVEKKRKFSPERLSAGGSA [r15_724_JUSTAS]	-0.411 ± 0.14 kcal/mol	0.779 ± 0.1 kcal/mol	0.439 ± 0.095 kcal/mol
SAGGSASVSDVTTTTVTVTVEVTEDPATGLQRLTATHPDLSFERLVPAGTIPADTTVTLDVTVTTGSAGGSA [r15_190_JUSTAS]	0.0934 ± 0.028 kcal/mol	0.452 ± 0.014 kcal/mol	0.322 ± 0.046 kcal/mol
SAGGSASVVLPNATVEELKEAVEKGAKEIVVVSPDPARAATIKAEIEKLHDTPVKVLTPEEAAALESAGGSA [r15_243_JUSTAS]	-0.205 ± 0.037 kcal/mol	1.32 ± 0.035 kcal/mol	0.907 ± 0.055 kcal/mol
SAGGSATIEEIAQEIADNLPPGRKYRAKIYYDGEERTYEFRNPNGFKINITWKNGKIRSIDIEPRPSAGGSA [r15_175_TrROS]	1.63 ± 0.046 kcal/mol	2.01 ± 0.16 kcal/mol	1.94 ± 0.17 kcal/mol
SAGGSATKELVLEIAEEIAPRFQKEGWPIKRVTVKVVRTPDGQVTIPVRIRFPDGKPIMQWNITIPSAGGSA [r15_232_TrROS]	1.03 ± 0.055 kcal/mol	0.00828 ± 0.36 kcal/mol	0.779 ± 0.17 kcal/mol
SAGGSATKVIYGMSVEEIRAAIKAGAKKIIIVADTEEQKKAAAEELEKEYNIKIEVKKIKPKKKKKSAGGSA [r15_243_TrROS_Hall]	0.83 ± 0.065 kcal/mol	2.22 ± 0.039 kcal/mol	1.89 ± 0.17 kcal/mol
SAGGSATPEEIAKKFFENHPELEPVEVKLEKFKIPGLKIWVVKVEITLKFKDNSKKKIPVVAVFPVSAGGSA [r15_266_TrMRF]	2.02 ± 0.066 kcal/mol	3.01 ± 0.039 kcal/mol	2.72 ± 0.074 kcal/mol
SAGGSATVTVTLVVRDPATGELTTVTATVTLEAAPAPVSVSLSLSLSRDPNGNLSLSLSVSVTVEGSAGGSA [r2_326_TrROS_Hall]	4.02 ± 0.094 kcal/mol	5.93 ± 0.13 kcal/mol	> 6 kcal/mol
SAGGSAVEFTEPGAELLSEEKLPDGTVVKRVLLPDGSVLLLLPDNSIKTRSLSNPNTSLSEWDPELSAGGSA [r15_692_JUSTAS]	0.613 ± 0.17 kcal/mol	0.332 ± 0.32 kcal/mol	0.491 ± 0.26 kcal/mol
SAGGSAVRIKVWPPNGKEQWIPIPSSMTPSTVQEMAENLADDWQEQNGNKNVKVEVDPDNGWIRIRSAGGSA [r15_33_TrROS]	-1.02 ± 0.3 kcal/mol	0.197 ± 0.084 kcal/mol	-0.0158 ± 0.066 kcal/mol
SAGGSAVTITVDDFEDIEDAEITLTRPDGRPVVARVRVEKGEGAPRVTVLWREPGSGRYRVETFPLSAGGSA [r15_1006_TrMRF]	0.925 ± 0.074 kcal/mol	1.49 ± 0.1 kcal/mol	1.28 ± 0.07 kcal/mol
SAGGSAWIRINSPEMVEAFAKELKDEGWKLKDVDVQRDPNNGNVWFEIPIEHPNNGKKRELEIWFRSAGGSA [r15_123_TrROS]	0.368 ± 0.077 kcal/mol	-0.0873 ± 0.2 kcal/mol	0.141 ± 0.11 kcal/mol

Sequence	folding stability dG unfold [1]	folding stability dG unfold [2]	folding stability dG unfold [3]
SAGGSAWIWITYQFPPGGTLEQAKEQIVNYLQRLFGWKIEIPDIEVEREGNNWTVTFPIKIEPLPGSAGGSA [r15_105_TrROS]	3.7 ± 0.16 kcal/mol	4.4 ± 0.098 kcal/mol	4.18 ± 0.24 kcal/mol
SAGGSDKEEKEKEIDIRIVQVPWDDARELAEESDDPVIFMLPDGHIHIFKGDGKVEPFPIPDPEEFSAGGSA [r2_34_TrROS]	-0.288 ± 0.071 kcal/mol	0.199 ± 0.15 kcal/mol	0.0224 ± 0.12 kcal/mol
SAGGSDVEIEVFENAIIITIPLDLDNGKGETVEVRIIAPFTPDGRPIFRIEVINPDSDEVVTFTFPSAGGSA [r2_484_TrMRF]	2.66 ± 0.081 kcal/mol	2.766 ± 0.017 kcal/mol	2.71 ± 0.068 kcal/mol
SAGGSDYYIRVRIRIYKPTPEDMQEGKPIPEVEIWFPFDSVEEIKEFLENLPPNIKVDVDWFPPEDSAGGSA [r2_25_TrROS]	3.35 ± 0.073 kcal/mol	4.21 ± 0.11 kcal/mol	3.89 ± 0.14 kcal/mol
SAGGSEAIKEALELAKENPGKTVEVEIKNEDGSIYKIKIEVKEGKVVKVEVEKVKKEEVLSEEEKKSAGGSA [r2_263_TrROS_Hall]	1.01 ± 0.1 kcal/mol	2.49 ± 0.043 kcal/mol	2.12 ± 0.1 kcal/mol
SAGGSEALTKNLPGVKEIKIEVEPTEVALSPELAKLLPNLPGVKFTVPSVKIDIKIEYPGTPDGTLSAGGSA [r2_404_TrMRF]	0.133 ± 0.088 kcal/mol	-0.659 ± 0.37 kcal/mol	-0.053 ± 0.15 kcal/mol
SAGGSEDRYLVHVLVRFPDELRELYLEARSPEEVERSVRRAIEELYPERLEDVEVVVFARPVSEPLSAGGSA [r2_111_TrMRF]	2.38 ± 0.038 kcal/mol	1.91 ± 0.081 kcal/mol	2.14 ± 0.061 kcal/mol
SAGGSEEEIKKKIEEIAKKRGTKIKSITIKKLPDGSLLATVTLEDNPNTTIEFKVEKNKVEITKINKSAGGS [r8_432_JUSTAS]	1.73 ± 0.068 kcal/mol	2.93 ± 0.051 kcal/mol	2.61 ± 0.066 kcal/mol
SAGGSEEKVFEFEVVEVTSVEVKEDGTVTIEVTVRLENGLLLTVRVTFDLATNEVTIEVELRPLPESAGGSA [r2_321_TrROS_Hall]	3.38 ± 0.35 kcal/mol	4.49 ± 0.19 kcal/mol	4.41 ± 0.2 kcal/mol
SAGGSEEVEEEPPVVVTVRLTIELTLADGSKVRVEVELVRTADGRLLLKIRVVNEDTGEVYEFTFPSAGGSA [r2_484_TrROS_Hall]	3.31 ± 0.24 kcal/mol	4.86 ± 0.23 kcal/mol	4.6 ± 0.19 kcal/mol
SAGGSEFIPVVAEFPEDVTPEDVARAVRELERAGFVVERVEVERFPDPDGRERYRVRVVLRRPEELSAGGSA [r2_442_TrMRF]	3.53 ± 0.081 kcal/mol	3.841 ± 0.0097 kcal/mol	3.732 ± 0.035 kcal/mol
SAGGSEKIEVEVERREDGYLVLRVRLELFDENGELVEEIEIEVVLPREELEKMSLEELLKRLLEELSAGGSA [r2_421_TrROS_Hall]	3.99 ± 0.17 kcal/mol	5.25 ± 0.38 kcal/mol	5.08 ± 0.67 kcal/mol
SAGGSEKVKIEIPFRHPEDGEPIFPVRIEYEKPPNGDYKLDIEIDNFPPGMKPSPAAKDAIEEFIKSAGGSA [r2_7_TrROS]	0.588 ± 0.07 kcal/mol	1.29 ± 0.052 kcal/mol	0.956 ± 0.19 kcal/mol
SAGGSEKVTIELEFRNPETGELIATVKIELERLPNGEIKAKIEFTNLPEGVELSEEMKKLLEELLKSAGGSA [r2_7_TrROS_Hall]	2.5 ± 0.31 kcal/mol	2.93 ± 0.19 kcal/mol	2.77 ± 0.34 kcal/mol
SAGGSELKPGDLVEVKVTVEFDEETGKATVEVEFNGKKLTVEVELEENQPPTVEVTLLVRIDKIEPSAGGSA [r2_113_TrROS_Hall]	2.36 ± 0.17 kcal/mol	2.48 ± 0.1 kcal/mol	2.46 ± 0.15 kcal/mol
SAGGSEPPKIKKIKDINVKHERHNDRPYWEVKIRIKLKNGNTAEIDIEMPGMPPEEAREQIKDILKSAGGSA [r2_26_TrROS]	0.391 ± 0.15 kcal/mol	0.872 ± 0.089 kcal/mol	0.938 ± 0.36 kcal/mol
SAGGSERTIMIPVEPGMSPEQIADEIKAILRELGPGRPIEIDDVHPGGWVKIKINNKPIKIHIMWPSAGGSA [r2_102_TrROS]	1.31 ± 0.038 kcal/mol	1.3 ± 0.081 kcal/mol	1.32 ± 0.1 kcal/mol
SAGGSETVEIELGSEDGTVYKIEIERFPETGLLLIKVDGPDPKVIEKVVKELGVDVVEVLEDGYVLLASAGG [r13_937_TrMRF]	1.45 ± 0.059 kcal/mol	1.89 ± 0.05 kcal/mol	1.78 ± 0.065 kcal/mol
SAGGSEVVLEAEGVDPATGKPYTVRVVYDKETGVPVVEVRDADGTLLAVIPVPPDKALEALKELGVSAGGSA [r2_115_TrMRF]	2.92 ± 0.08 kcal/mol	3.046 ± 0.013 kcal/mol	2.99 ± 0.067 kcal/mol
SAGGSFDPVEITTLEDGTIKILAKDPNTNKLFITTLKAKSIKTSSLGNGKTITTIPHEKVEESEELPSAGGS [r16_615_JUSTAS]	-0.795 ± 0.66 kcal/mol	-0.0729 ± 0.51 kcal/mol	-0.554 ± 0.67 kcal/mol
SAGGSFEFKAEVFYDKEKDIYYVKIPYILKNTGKIIPIVKKVKAGDPIPVEKLAEKIAKELEELGISAGGSA [r2_221_TrMRF]	0.357 ± 0.079 kcal/mol	1.89 ± 0.066 kcal/mol	1.36 ± 0.1 kcal/mol
